Test results as given in the Immune Epitope Database (IEDB).

What was measured:
Assay in all cases: IEDB peptide-MHC binding, purified MHC/competitive/radioactivity; filed as Kd, often an IC50 or EC50 that approximates it; ≥ and ≤ were set here for values at or beyond the usual limits of such assays
Conditions in all cases: source organism: Influenza A virus
HLA-A*03:01 = target: HLA-A*03:01
HLA-A*11:01 = target: HLA-A*11:01
HLA-A*31:01 = target: HLA-A*31:01
HLA-A*33:01 = target: HLA-A*33:01
HLA-A*68:01 = target: HLA-A*68:01
HLA-A*02:01 = target: HLA-A*02:01
HLA-A*02:02 = target: HLA-A*02:02
HLA-A*02:03 = target: HLA-A*02:03
HLA-A*02:06 = target: HLA-A*02:06
HLA-A*68:02 = target: HLA-A*68:02
HLA-A*23:01 = target: HLA-A*23:01
HLA-A*24:02 = target: HLA-A*24:02
HLA-A*29:02 = target: HLA-A*29:02
HLA-A*30:02 = target: HLA-A*30:02
HLA-B*18:01 = target: HLA-B*18:01
HLA-B*40:01 = target: HLA-B*40:01
HLA-B*40:02 = target: HLA-B*40:02
HLA-B*44:02 = target: HLA-B*44:02
HLA-B*44:03 = target: HLA-B*44:03
HLA-B*45:01 = target: HLA-B*45:01
HLA-B*35:01 = target: HLA-B*35:01
HLA-B*51:01 = target: HLA-B*51:01
HLA-B*53:01 = target: HLA-B*53:01
HLA-B*54:01 = target: HLA-B*54:01
HLA-A*01:01 = target: HLA-A*01:01

Q: Which results are given for ASCMGLIYNR?
A: Kd (HLA-A*03:01): 816 nM; Kd (HLA-A*11:01): 32 nM; Kd (HLA-A*31:01): 7 nM; Kd (HLA-A*33:01): 445 nM; Kd (HLA-A*68:01): 391 nM

Q: CLPACVYGL was tested. Which Kd (HLA-A*02:01) did it give?
A: Its Kd is 79 nM.

Q: And the Kd (HLA-A*02:02)?
A: Its Kd is 4 nM.

Q: What about the Kd (HLA-A*02:03) of the same sequence?
A: Its Kd is 143 nM.

Q: What about the Kd (HLA-A*02:06) of the same sequence?
A: The Kd was 95 nM.

Q: What about the Kd (HLA-A*68:02) of the same sequence?
A: The Kd was 3770 nM.

Q: With FQGRGVFEL as the sequence, how does the Kd (HLA-A*02:01) read?
A: The Kd was 143 nM.

Q: And the Kd (HLA-A*02:02)?
A: The Kd was 7 nM.

Q: And the Kd (HLA-A*02:03)?
A: Its Kd is 307 nM.

Q: What about the Kd (HLA-A*02:06) of the same sequence?
A: Its Kd is 7 nM.

Q: What about the Kd (HLA-A*68:02) of the same sequence?
A: The Kd was at least 10000 nM.

Q: FQVDCFLWHV was tested. Which Kd (HLA-A*02:01) did it give?
A: The Kd was 4 nM.

Q: And the Kd (HLA-A*02:02)?
A: Its Kd is 4 nM.

Q: What about the Kd (HLA-A*02:03) of the same sequence?
A: Its Kd is 3 nM.

Q: And the Kd (HLA-A*02:06)?
A: The Kd was at most 1 nM.

Q: What about the Kd (HLA-A*68:02) of the same sequence?
A: The Kd was 219 nM.

Q: With FYIQMCTEL as the sequence, how does the Kd (HLA-A*23:01) read?
A: Its Kd is 8 nM.

Q: And the Kd (HLA-A*24:02)?
A: The Kd was 24 nM.

Q: What about the Kd (HLA-A*29:02) of the same sequence?
A: The Kd was 1560 nM.

Q: And the Kd (HLA-A*30:02)?
A: Its Kd is at least 10000 nM.

Q: For FYRYGFVANF, which Kd (HLA-A*23:01) is on record?
A: The Kd was 13 nM.

Q: And the Kd (HLA-A*24:02)?
A: Its Kd is 17 nM.

Q: What about the Kd (HLA-A*29:02) of the same sequence?
A: Its Kd is 812 nM.

Q: What about the Kd (HLA-A*30:02) of the same sequence?
A: The Kd was at least 10000 nM.

Q: Which results are given for GERQNATEI?
A: Kd (HLA-B*18:01): ≥ 10000 nM; Kd (HLA-B*40:01): 199 nM; Kd (HLA-B*40:02): 53 nM; Kd (HLA-B*44:02): ≥ 10000 nM; Kd (HLA-B*44:03): ≥ 10000 nM; Kd (HLA-B*45:01): 304 nM

Q: How did the Kd (HLA-A*03:01) turn out when GTFEFTSFFY was run?
A: The Kd was 16 nM.

Q: What about the Kd (HLA-A*11:01) of the same sequence?
A: The Kd was at most 1 nM.

Q: And the Kd (HLA-A*31:01)?
A: The Kd was 242 nM.

Q: What about the Kd (HLA-A*33:01) of the same sequence?
A: The Kd was 5410 nM.

Q: What about the Kd (HLA-A*68:01) of the same sequence?
A: The Kd was 100 nM.

Q: How did the Kd (HLA-A*03:01) turn out when KFLPDLYDYK was run?
A: Its Kd is 255 nM.

Q: What about the Kd (HLA-A*11:01) of the same sequence?
A: The Kd was 22 nM.

Q: What about the Kd (HLA-A*31:01) of the same sequence?
A: Its Kd is 2410 nM.

Q: And the Kd (HLA-A*33:01)?
A: The Kd was at least 10000 nM.

Q: What about the Kd (HLA-A*68:01) of the same sequence?
A: The Kd was 507 nM.

Q: With KLVGINMSKK as the sequence, how does the Kd (HLA-A*03:01) read?
A: Its Kd is 14 nM.

Q: And the Kd (HLA-A*11:01)?
A: The Kd was 315 nM.

Q: What about the Kd (HLA-A*31:01) of the same sequence?
A: The Kd was 518 nM.

Q: And the Kd (HLA-A*33:01)?
A: Its Kd is at least 10000 nM.

Q: What about the Kd (HLA-A*68:01) of the same sequence?
A: Its Kd is 1610 nM.

Q: Which Kd (HLA-A*29:02) does the source give for KSCLPACVY here?
A: Its Kd is at least 10000 nM.

Q: And the Kd (HLA-A*30:02)?
A: The Kd was 43 nM.

Q: For LPRRSGAAGA, which Kd (HLA-B*35:01) is on record?
A: The Kd was at least 10000 nM.

Q: And the Kd (HLA-B*51:01)?
A: Its Kd is at least 10000 nM.

Q: And the Kd (HLA-B*53:01)?
A: The Kd was at least 10000 nM.

Q: And the Kd (HLA-B*54:01)?
A: Its Kd is 47 nM.

Q: For NMLSTVLGV, which Kd (HLA-A*02:02) is on record?
A: The Kd was 5 nM.

Q: And the Kd (HLA-A*02:03)?
A: The Kd was 11 nM.

Q: What about the Kd (HLA-A*02:06) of the same sequence?
A: The Kd was 3 nM.

Q: And the Kd (HLA-A*68:02)?
A: Its Kd is 1060 nM.

Q: With QEIRTFSFQL as the sequence, how does the Kd (HLA-B*18:01) read?
A: The Kd was 515 nM.

Q: And the Kd (HLA-B*40:01)?
A: Its Kd is 135 nM.

Q: And the Kd (HLA-B*40:02)?
A: Its Kd is 68 nM.

Q: And the Kd (HLA-B*44:02)?
A: Its Kd is 102 nM.

Q: What about the Kd (HLA-B*44:03) of the same sequence?
A: The Kd was 431 nM.

Q: What about the Kd (HLA-B*45:01) of the same sequence?
A: Its Kd is 380 nM.

Q: Which Kd (HLA-A*03:01) does the source give for RLFFKCIYRR here?
A: Its Kd is 135 nM.

Q: What about the Kd (HLA-A*11:01) of the same sequence?
A: Its Kd is 294 nM.

Q: And the Kd (HLA-A*31:01)?
A: Its Kd is 5 nM.

Q: What about the Kd (HLA-A*33:01) of the same sequence?
A: The Kd was 238 nM.

Q: And the Kd (HLA-A*68:01)?
A: The Kd was 88 nM.

Q: SEQAAEAMEV was tested. Which Kd (HLA-B*18:01) did it give?
A: Its Kd is 1900 nM.

Q: And the Kd (HLA-B*40:01)?
A: Its Kd is 2670 nM.

Q: What about the Kd (HLA-B*40:02) of the same sequence?
A: The Kd was 85 nM.

Q: And the Kd (HLA-B*44:02)?
A: The Kd was 2640 nM.

Q: What about the Kd (HLA-B*44:03) of the same sequence?
A: The Kd was 7670 nM.

Q: What about the Kd (HLA-B*45:01) of the same sequence?
A: Its Kd is 35 nM.

Q: Which Kd (HLA-A*33:01) does the source give for SFSFGGFTFK here?
A: Its Kd is 85 nM.

Q: SVQPTFSVQR was tested. Which Kd (HLA-A*03:01) did it give?
A: The Kd was at least 10000 nM.

Q: And the Kd (HLA-A*11:01)?
A: Its Kd is 37 nM.

Q: What about the Kd (HLA-A*31:01) of the same sequence?
A: The Kd was 21 nM.

Q: What about the Kd (HLA-A*33:01) of the same sequence?
A: Its Kd is 181 nM.

Q: And the Kd (HLA-A*68:01)?
A: Its Kd is 84 nM.

Q: How did the Kd (HLA-A*03:01) turn out when SVQRNLPFER was run?
A: The Kd was at least 10000 nM.

Q: And the Kd (HLA-A*11:01)?
A: Its Kd is 411 nM.

Q: What about the Kd (HLA-A*31:01) of the same sequence?
A: The Kd was 104 nM.

Q: And the Kd (HLA-A*33:01)?
A: The Kd was 321 nM.

Q: And the Kd (HLA-A*68:01)?
A: The Kd was 19 nM.

Q: Which Kd (HLA-B*18:01) does the source give for TEVETYVLSI here?
A: Its Kd is 136 nM.

Q: And the Kd (HLA-B*40:01)?
A: Its Kd is 133 nM.

Q: And the Kd (HLA-B*40:02)?
A: Its Kd is 195 nM.

Q: What about the Kd (HLA-B*44:02) of the same sequence?
A: Its Kd is 6880 nM.

Q: What about the Kd (HLA-B*44:03) of the same sequence?
A: The Kd was 247 nM.

Q: And the Kd (HLA-B*45:01)?
A: Its Kd is 504 nM.

Q: For VLRGFLILGK, which Kd (HLA-A*03:01) is on record?
A: The Kd was 10 nM.

Q: And the Kd (HLA-A*11:01)?
A: Its Kd is 460 nM.

Q: And the Kd (HLA-A*31:01)?
A: Its Kd is 85 nM.

Q: What about the Kd (HLA-A*33:01) of the same sequence?
A: The Kd was at least 10000 nM.

Q: And the Kd (HLA-A*68:01)?
A: The Kd was 1160 nM.

Q: YSHGTGTGY was tested. Which Kd (HLA-A*01:01) did it give?
A: The Kd was 199 nM.

Q: What about the Kd (HLA-A*29:02) of the same sequence?
A: Its Kd is 486 nM.

Q: And the Kd (HLA-A*30:02)?
A: The Kd was 131 nM.
